Test results taken from patent CN114106174A.

Target: OX40 on OX40-overexpressing cells (OX40过表达细胞表面OX40) (UniProt P43489)
Experiment: flow cytometry, positive control at 1 microgram/ml on OX40-overexpressing cells, goat anti-mouse IgG-PE

Sequence of UniProt P43489 (P43489 29-277 limits assumed): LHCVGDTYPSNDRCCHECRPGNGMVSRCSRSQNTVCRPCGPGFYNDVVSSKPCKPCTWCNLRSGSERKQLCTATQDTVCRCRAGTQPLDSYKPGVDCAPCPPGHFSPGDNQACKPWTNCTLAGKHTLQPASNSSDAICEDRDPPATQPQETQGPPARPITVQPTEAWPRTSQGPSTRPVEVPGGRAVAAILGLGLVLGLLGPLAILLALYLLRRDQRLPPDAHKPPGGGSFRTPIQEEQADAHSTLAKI

Y586通道PE荧光值: 210000
Substance: 抗-OX40抗体 (clone ACT35, Biolegend) (antibody)
